Experimental findings from patent publication US20180291110A1 (Hoffmann-La Roche, published 2018) are described below.

As usually defined, the koff is a measure of how fast the partners let go of each other.

For the test, the target named is T1, human transferrin receptor (recombinant, for surface plasmon resonance) (human, UniProt P02786 89-760).
T1 construct: also called huTfR; human transferrin receptor-biotinylated
Kind of test: SPR 25C.

T1 sequence (P02786 89-760 limits assumed): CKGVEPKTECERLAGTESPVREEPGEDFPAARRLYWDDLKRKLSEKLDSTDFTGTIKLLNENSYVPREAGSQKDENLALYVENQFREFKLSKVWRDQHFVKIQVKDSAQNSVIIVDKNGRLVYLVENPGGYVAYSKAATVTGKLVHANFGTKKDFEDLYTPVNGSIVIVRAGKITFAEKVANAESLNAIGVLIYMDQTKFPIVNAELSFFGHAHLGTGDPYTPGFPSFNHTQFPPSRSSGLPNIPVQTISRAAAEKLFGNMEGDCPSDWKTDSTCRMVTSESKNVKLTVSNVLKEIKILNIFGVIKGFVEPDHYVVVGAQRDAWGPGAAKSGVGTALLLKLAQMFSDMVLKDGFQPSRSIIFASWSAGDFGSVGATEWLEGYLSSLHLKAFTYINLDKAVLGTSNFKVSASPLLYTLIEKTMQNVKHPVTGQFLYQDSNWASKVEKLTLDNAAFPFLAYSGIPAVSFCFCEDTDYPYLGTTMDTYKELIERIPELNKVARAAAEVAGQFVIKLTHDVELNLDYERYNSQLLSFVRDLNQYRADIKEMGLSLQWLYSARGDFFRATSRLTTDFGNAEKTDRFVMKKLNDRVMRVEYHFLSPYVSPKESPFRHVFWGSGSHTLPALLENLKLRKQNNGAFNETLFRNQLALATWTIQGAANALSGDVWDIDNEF

B1: 2/99 VH23-DANG/VL5 (antibody, V domains shown)
VH: QSMQESGPGLVKPSQTLSLTCTVSGFSLSSYAMSWIRQHPGKGLEWIGYIWSGGSTDYASWAKSRVTISKTSTTVSLKLSSVTAADTAVYYCARRYGTSYPDYGDANGFDPWGQGTLVTVSS
VL: DIQMTQSPSSLSASVGDRVTITCRASQSISSYLSWYQQKPGKAPKLLIYRASTLASGVPSRFSGSGSGTDFTLTISSLQPEDFATYYCQQSYSSSNVDNTFGGGTKVEIK
In the case of B1, the koff is 0.00088 s⁻¹.

B2: 2/99 VH1/VL7 (antibody, V domains shown)
VH: VQLVETGGGLIQPGGSLRLSCAASGFSLSSYAMSWVRQAPGKGLEWVGYIWSGGSTDYADSVKGRFTISRDNSKNTLYLQMNSLRAEDTAVYYCARRYGTSYPDYGDANGFDPWGQGTLVTVSS
VL: AIQLTQSPSSLSASVGDRVTITCRASQSISSYLAWYQQKPGKAPKLLIYRASTLASGVPSRFSGSGSGTDFTLTISSLQPEDFATYYCQQSYSSSNVDNTFGGGTKVEIK
In the case of B2, the koff is 0.00733 s⁻¹.

B3: 2/99 VH20/VL6 (antibody, V domains shown)
VH: QSMQESGPGLVKPSQTLSLTCTVSGFSLSSYAMSWIRQHPGKGLEWIGYIWSGGSTDYAPSLKSRVTISVDTSKNQVSLKLSSVTAADTAVYYCARRYGTSYPDYGDANGFDPWGQGTLVTVSS
VL: AIQLTQSPSSLSASVGDRVTITCRASQSISSYLSWYQQKPGKAPKLLIYRASTLASGVPSRFSGSGSGTDFTLTISSLQPEDFATYYCQQSYSSSNVDNTFGGGTKVEIK
Turning to B3, the koff was 0.00606 s⁻¹.

B4: 2/99 VH1/VL6 (antibody, V domains shown)
VH: VQLVETGGGLIQPGGSLRLSCAASGFSLSSYAMSWVRQAPGKGLEWVGYIWSGGSTDYADSVKGRFTISRDNSKNTLYLQMNSLRAEDTAVYYCARRYGTSYPDYGDANGFDPWGQGTLVTVSS
VL: AIQLTQSPSSLSASVGDRVTITCRASQSISSYLSWYQQKPGKAPKLLIYRASTLASGVPSRFSGSGSGTDFTLTISSLQPEDFATYYCQQSYSSSNVDNTFGGGTKVEIK
As to B4, the koff came out at 0.00538 s⁻¹.

B5: 2/99 VH12/VL6 (antibody, V domains shown)
VH: QVQLQESGPGLVKPSETLSLTCTVSGFSLSSYAMSWIRQPPGKGLEWIGYIWSGGSTDYNPSLKSRVTISVDTSKNQFSLKLSSVTAADTAVYYCARRYGTSYPDYGDANGFDPWGQGTLVTVSS
VL: AIQLTQSPSSLSASVGDRVTITCRASQSISSYLSWYQQKPGKAPKLLIYRASTLASGVPSRFSGSGSGTDFTLTISSLQPEDFATYYCQQSYSSSNVDNTFGGGTKVEIK
Regarding B5, the koff worked out at 0.00705 s⁻¹.

B6: 2/99 VH6/VL6 (antibody, V domains shown)
VH: QQLVETGGGLIQPGGSLRLSCAASGFSLSSYAMSWVRQAPGKGLEWIGYIWSGGSTDYADSVKGRFTISRDNSKNTLYLQMNSLRAEDTAVYYCARRYGTSYPDYGDANGFDPWGQGTLVTVSS
VL: AIQLTQSPSSLSASVGDRVTITCRASQSISSYLSWYQQKPGKAPKLLIYRASTLASGVPSRFSGSGSGTDFTLTISSLQPEDFATYYCQQSYSSSNVDNTFGGGTKVEIK
Consider B6, for which the koff was 0.00306 s⁻¹.

B7: 2/99 VH11/VL6 (antibody, V domains shown)
VH: QQLLESGGGLVQPGGSLRLSCAASGFSLSSYAMSWVRQAPGKGLEWVGYIWSGGSTDYADSVKGRFTISRDNSKNTLYLQMNSLRAEDTAVYYCARRYGTSYPDYGDANGFDPWGQGTLVTVSS
VL: AIQLTQSPSSLSASVGDRVTITCRASQSISSYLSWYQQKPGKAPKLLIYRASTLASGVPSRFSGSGSGTDFTLTISSLQPEDFATYYCQQSYSSSNVDNTFGGGTKVEIK
With B7, the koff was 0.00671 s⁻¹.

B8: 2/99 VH18/VL6 (antibody, V domains shown)
VH: QVQLQESGPGLVKPSQTLSLTCTVSGFSLSSYAMSWIRQHPGKGLEWIGYIWSGGSTDYAPSLKSRVTISVDTSKNQFSLKLSSVTAADTAVYYCARRYGTSYPDYGDANGFDPWGQGTLVTVSS
VL: AIQLTQSPSSLSASVGDRVTITCRASQSISSYLSWYQQKPGKAPKLLIYRASTLASGVPSRFSGSGSGTDFTLTISSLQPEDFATYYCQQSYSSSNVDNTFGGGTKVEIK
As to B8, the koff is 0.00674 s⁻¹.

B9: 2/99 VH15/VL6 (antibody, V domains shown)
VH: QQLQESGPGLVKPSETLSLTCTVSGFSLSSYAMSWVRQPPGKGLEWIGYIWSGGSTDYNPSLKSRVTISVDTSKNQVSLKLSSVTAADTAVYYCARRYGTSYPDYGDANGFDPWGQGTLVTVSS
VL: AIQLTQSPSSLSASVGDRVTITCRASQSISSYLSWYQQKPGKAPKLLIYRASTLASGVPSRFSGSGSGTDFTLTISSLQPEDFATYYCQQSYSSSNVDNTFGGGTKVEIK
In the case of B9, the koff was found to be 0.0035 s⁻¹.

B10: 2/99 VH5/VL6 (antibody, V domains shown)
VH: QSMEETGGGLIQPGGSLRLSCAASGFSLSSYAMSWVRQAPGKGLEWVGYIWSGGSTDYADSVKGRFTISRDNSKNTLYLQMNSLRAEDTAVYYCARRYGTSYPDYGDANGFDPWGPGTLVTVSS
VL: AIQLTQSPSSLSASVGDRVTITCRASQSISSYLSWYQQKPGKAPKLLIYRASTLASGVPSRFSGSGSGTDFTLTISSLQPEDFATYYCQQSYSSSNVDNTFGGGTKVEIK
Turning to B10, the koff came out at 0.00464 s⁻¹.

B11: 2/99 VH13/VL6 (antibody, V domains shown)
VH: QVQLQESGPGLVKPSETLSLTCTVSGFSLSSYAMSWIRQPPGKGLEWIGYIWSGGSTDYNPSLKSRVTISVDTSKNQVSLKLSSVTAADTAVYYCARRYGTSYPDYGDANGFDPWGQGTLVTVSS
VL: AIQLTQSPSSLSASVGDRVTITCRASQSISSYLSWYQQKPGKAPKLLIYRASTLASGVPSRFSGSGSGTDFTLTISSLQPEDFATYYCQQSYSSSNVDNTFGGGTKVEIK
Turning to B11, the off-rate (koff) came to 0.00365 s⁻¹.

B12: 2/99 VH2/VL6 (antibody, V domains shown)
VH: EVQLVETGGGLIQPGGSLRLSCAASGFSLSSYAMSWVRQAPGKGLEWVGYIWSGGSTDYADSVKGRFTISRDNSKNTLYLQMNSLRAEDTAVYYCARRYGTSYPDYGDANGFDPWGQGTLVTVSS
VL: AIQLTQSPSSLSASVGDRVTITCRASQSISSYLSWYQQKPGKAPKLLIYRASTLASGVPSRFSGSGSGTDFTLTISSLQPEDFATYYCQQSYSSSNVDNTFGGGTKVEIK
As for B12, the koff was determined as 0.00555 s⁻¹.

B13: 2/99 VH16/VL6 (antibody, V domains shown)
VH: QQLQESGPGLVKPSETLSLTCTVSGFSLSSYAMSWVRQPPGKGLEWIGYIWSGGSTDYNPSLKSRVTISVDTSKNQVSLKLSSVTAADTAVYYCARRYGTSYPDYGDANGFDPWGPGTLVTVSS
VL: AIQLTQSPSSLSASVGDRVTITCRASQSISSYLSWYQQKPGKAPKLLIYRASTLASGVPSRFSGSGSGTDFTLTISSLQPEDFATYYCQQSYSSSNVDNTFGGGTKVEIK
Regarding B13, the koff is 0.00339 s⁻¹.

B14: 2/99 VH22/VL6 (antibody, V domains shown)
VH: QSMQESGPGLVKPSQTLSLTCTVSGFSLSSYAMSWVRQHPGKGLEWIGYIWSGGSTDYASWAKSRVTISVDTSKNQVSLKLSSVTAADTAVYYCARRYGTSYPDYGDANGFDPWGQGTLVTVSS
VL: AIQLTQSPSSLSASVGDRVTITCRASQSISSYLSWYQQKPGKAPKLLIYRASTLASGVPSRFSGSGSGTDFTLTISSLQPEDFATYYCQQSYSSSNVDNTFGGGTKVEIK
Turning to B14, the koff was found to be 0.00214 s⁻¹.

B15: 2/99 VH2/VL7 (antibody, V domains shown)
VH: EVQLVETGGGLIQPGGSLRLSCAASGFSLSSYAMSWVRQAPGKGLEWVGYIWSGGSTDYADSVKGRFTISRDNSKNTLYLQMNSLRAEDTAVYYCARRYGTSYPDYGDANGFDPWGQGTLVTVSS
VL: AIQLTQSPSSLSASVGDRVTITCRASQSISSYLAWYQQKPGKAPKLLIYRASTLASGVPSRFSGSGSGTDFTLTISSLQPEDFATYYCQQSYSSSNVDNTFGGGTKVEIK
In the case of B15, the koff is 0.0075 s⁻¹.

B16: 2/99 VH19/VL6 (antibody, V domains shown)
VH: QSMQESGPGLVKPSQTLSLTCTVSGFSLSSYAMSWIRQHPGKGLEWIGYIWSGGSTDYAPSLKSRVTISVDTSKNQFSLKLSSVTAADTAVYYCARRYGTSYPDYGDANGFDPWGQGTLVTVSS
VL: AIQLTQSPSSLSASVGDRVTITCRASQSISSYLSWYQQKPGKAPKLLIYRASTLASGVPSRFSGSGSGTDFTLTISSLQPEDFATYYCQQSYSSSNVDNTFGGGTKVEIK
Turning to B16, the koff is 0.001 s⁻¹.

B17: 2/99 VH5/VL7 (antibody, V domains shown)
VH: QSMEETGGGLIQPGGSLRLSCAASGFSLSSYAMSWVRQAPGKGLEWVGYIWSGGSTDYADSVKGRFTISRDNSKNTLYLQMNSLRAEDTAVYYCARRYGTSYPDYGDANGFDPWGPGTLVTVSS
VL: AIQLTQSPSSLSASVGDRVTITCRASQSISSYLAWYQQKPGKAPKLLIYRASTLASGVPSRFSGSGSGTDFTLTISSLQPEDFATYYCQQSYSSSNVDNTFGGGTKVEIK
As to B17, the dissociation rate constant (koff) is 0.00697 s⁻¹.

B18: 2/99 VH17/VL6 (antibody, V domains shown)
VH: QQLQESGPGLVKPSETLSLTCTVSGFSLSSYAMSWVRQPPGKGLEWIGYIWSGGSTDYNPSLKSRVTISKDTSKNQVSLKLSSVTAADTAVYYCARRYGTSYPDYGDANGFDPWGPGTLVTVSS
VL: AIQLTQSPSSLSASVGDRVTITCRASQSISSYLSWYQQKPGKAPKLLIYRASTLASGVPSRFSGSGSGTDFTLTISSLQPEDFATYYCQQSYSSSNVDNTFGGGTKVEIK
B18: the koff worked out at 0.00171 s⁻¹.

B19: 2/99 VH8/VL6 (antibody, V domains shown)
VH: QQLVETGGGLIQPGGSLRLSCAASGFSLSSYAMSWVRQAPGKGLEWIGYIWSGGSTDYASWAKGRFTISKTSTTLYLQMNSLRAEDTAVYYCARRYGTSYPDYGDANGFDPWGQGTLVTVSS
VL: AIQLTQSPSSLSASVGDRVTITCRASQSISSYLSWYQQKPGKAPKLLIYRASTLASGVPSRFSGSGSGTDFTLTISSLQPEDFATYYCQQSYSSSNVDNTFGGGTKVEIK
As to B19, the koff was determined as 0.0014 s⁻¹.

B20: 2/99 VH21/VL6 (antibody, V domains shown)
VH: QSMQESGPGLVKPSQTLSLTCTVSGFSLSSYAMSWIRQHPGKGLEWIGYIWSGGSTDYASWAKSRVTISVDTSKNQVSLKLSSVTAADTAVYYCARRYGTSYPDYGDANGFDPWGQGTLVTVSS
VL: AIQLTQSPSSLSASVGDRVTITCRASQSISSYLSWYQQKPGKAPKLLIYRASTLASGVPSRFSGSGSGTDFTLTISSLQPEDFATYYCQQSYSSSNVDNTFGGGTKVEIK
As for B20, the koff is 0.00207 s⁻¹.

B21: 2/99 VH9/VL6 (antibody, V domains shown)
VH: QQLLESGGGLVQPGGSLRLSCAASGFTFSSYAMSWVRQAPGKGLEWVGYIWSGGSTDYADSVKGRFTISRDNSKNTLYLQMNSLRAEDTAVYYCAKRYGTSYPDYGDANGFDPWGQGTLVTVSS
VL: AIQLTQSPSSLSASVGDRVTITCRASQSISSYLSWYQQKPGKAPKLLIYRASTLASGVPSRFSGSGSGTDFTLTISSLQPEDFATYYCQQSYSSSNVDNTFGGGTKVEIK
Take B21: the koff worked out at 0.00683 s⁻¹.
